T1: soluble Macaca fascicularis CTLA-4 expressed with a C-terminal myc-myc-polyhistidine tag (Macaca fascicularis)
T1 construct: soluble protein; also called mf CTLA-4.mmh; mfCTLA4.mmh
T1 chain: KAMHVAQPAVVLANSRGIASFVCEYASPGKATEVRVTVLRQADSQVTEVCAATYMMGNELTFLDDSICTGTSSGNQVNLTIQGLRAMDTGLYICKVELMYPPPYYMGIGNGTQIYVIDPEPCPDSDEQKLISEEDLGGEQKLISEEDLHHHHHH

B1: H1H19269P (antibody, human IgG1, V domains shown)
VH: EVQLVESGGGLVQPGGSLKLSCAASGFTFSGSAMHWVRQASGKGLEWVGRIRGKANSFATAYSASVKGRFTISRDDSKNTASLQMNSLRTEDTAVYFCTREDQQLVRPYYYHYGMDVWGQGTTVTVSS
VL: DIQMTQSPSSLSASVGDRVTITCRTSQSITNYLNWYQQKPGKAPKLLIYATASLQSGVPSRFSGSGSETDFTLTISSLQPEDFATYYCQQSYSTPLTFGGGTKVEIK
B2: H1H19281P (antibody, human IgG1, V domains shown)
VH: QVQLVESGGGVVQPGRSLRLSCAASGLTFSYYGMHWVRQAPGKGLEWVAVISYDGSNKYYADSVKGRFTISRDNSKNTLYLQMNSLRAEDAAVYYCAKDLGGDDYYGMDVWGQGTTVTVSS
VL: EIVLTQSPGTLSLSPGERATLSCRASQSVSRTYLAWYQQKPGQAPRLLIYGAFSRATGIPDRFSGSGSGTDFTLTISRLEPEDFAVYYCQQYGSSPYTFGQGTKLEIK

Tests used:
[1] = target: T2, recombinant hCTLA-4-mFc (human CTLA-4 extracellular domain with a C-terminal Fc portion of mouse IgG2a) (human); assay: competition ELISA, 400 pM hCTLA-4-mFc on plate-coated hB7-2-hIgG1-6His; * value below theoretical bottom of assay
T2 construct: also called dimeric CTLA-4 protein
T2 sequence (chain, as listed by the source limits assumed): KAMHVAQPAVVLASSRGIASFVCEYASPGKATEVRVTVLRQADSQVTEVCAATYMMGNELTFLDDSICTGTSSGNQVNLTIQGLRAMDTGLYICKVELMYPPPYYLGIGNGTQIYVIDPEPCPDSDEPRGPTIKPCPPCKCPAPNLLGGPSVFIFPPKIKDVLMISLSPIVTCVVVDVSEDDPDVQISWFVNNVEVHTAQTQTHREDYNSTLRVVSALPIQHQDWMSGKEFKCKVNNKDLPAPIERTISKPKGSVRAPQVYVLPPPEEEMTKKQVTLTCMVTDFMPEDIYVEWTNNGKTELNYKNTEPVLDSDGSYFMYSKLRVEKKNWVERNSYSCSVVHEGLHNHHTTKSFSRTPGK

[2] = target: T1, soluble Macaca fascicularis CTLA-4 …; assay: SPR, mAb capture, 25 C
[3] = target: T3, soluble human CTLA-4 expressed with a C-terminal myc-myc-polyhistidine tag (human); assay: SPR, mAb capture, 25 C
T3 construct: soluble protein; also called hCTLA-4.mmh; hCTLA4.mmh
T3 sequence (chain, as listed by the source limits assumed): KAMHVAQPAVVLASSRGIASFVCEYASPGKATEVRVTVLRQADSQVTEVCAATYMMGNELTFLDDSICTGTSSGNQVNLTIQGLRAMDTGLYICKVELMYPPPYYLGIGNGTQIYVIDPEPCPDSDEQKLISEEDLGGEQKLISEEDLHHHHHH

[4] = target: T2, recombinant hCTLA-4-mFc (human CTLA-4 …); assay: competition ELISA, 200 pM hCTLA-4-mFc on plate-coated hB7-1-hIgG1-6His
[5] = target: T2, recombinant hCTLA-4-mFc (human CTLA-4 …); assay: competition ELISA, 400 pM hCTLA-4-mFc on plate-coated hB7-2-hIgG1-6His
[6] = target: T4, human CTLA-4 (amino acids M1-N223) on stably transfected VI-fibroblast cells (human, UniProt P16410 36-223); assay: ECL cell binding, VI-fibroblast/hCTLA-4 cells;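 also: antibodies bound to the cells on carbon electrode plates, detected via SULFO-TAG anti-IgG secondary (1 h, RT), electrochemiluminescence read as RLU over a concentration range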
T4 construct: also called VI-fibroblast/hCTLA-4
T4 sequence (P16410 36-223 limits assumed): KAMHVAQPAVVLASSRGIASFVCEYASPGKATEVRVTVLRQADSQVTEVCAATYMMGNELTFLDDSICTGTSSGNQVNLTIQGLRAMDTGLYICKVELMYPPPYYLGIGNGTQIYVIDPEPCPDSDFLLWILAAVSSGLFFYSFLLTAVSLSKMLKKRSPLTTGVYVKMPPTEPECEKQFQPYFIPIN

[7] = target: T2, recombinant hCTLA-4-mFc (human CTLA-4 …); assay: competition ELISA, 200 pM hCTLA-4-mFc on plate-coated hB7-1-hIgG1-6His; * value below theoretical bottom of assay

Row | Binder | IC50 [1] | Kd [2] | koff [2] | kon [2] | t1/2 [2] | Kd [3] | koff [3] | kon [3] | t1/2 [3] | % Blockade [4] | IC50 [4] | % Blockade [5] | EC50 [6] | ratio of RLU signal to parental VI-fibroblast at 0.4 nM Ab [6] | IC50 [7]
1 | B1 | 0.19 nM | 1.22 nM | 0.000435 s⁻¹ | 356000 M⁻¹ s⁻¹ | 26.6 min | 1.2 nM | 0.000474 s⁻¹ | 394000 M⁻¹ s⁻¹ | 24.4 min | 98% | 0.1 nM | 100% | 0.4 nM | 15 ratio | 
2 | B2 | 0.19 nM | 2.14 nM | 0.00101 s⁻¹ | 472000 M⁻¹ s⁻¹ | 11.5 min | 1.53 nM | 0.000741 s⁻¹ | 484000 M⁻¹ s⁻¹ | 15.6 min | 99% |  | 100% | 0.075 nM | 23 ratio | 0.094 nM
